Reference: US20170015742A1 (published 2017)
Values belong to the binder of their own block, whether it stands above or below them.

Columns and labels:
[1] = target: T1, recombinant human PDGF-BB (human, UniProt P01127 82-190); test: competition ELISA: blocks hPDGF-BB-biotin binding to coated hPDGF-Rβ-Fc
T1 construct: also called hPDGF-BB; huPDGF-BB
Method: Plates were then washed four times with wash buffer (TBS, 0.05% Tween-20) and blocked with Superblock blocking buffer (Thermo Scientific, cat#37535). During the blocking step, supernatants, antibodies, benchmark compounds or DVD-Ig were diluted in assay diluent (10% Superblock containing 0.05% surfactamps) and an eight point titration of each sample molecule was performed. […] Following incubation, plates were washed four times with wash buffer. Detection reagent Streptavidin-polyHRP-40 (Fitzgerald, cat#65r-s104phrp) was diluted in assay diluent and added to plates (50 μL) for 45 minutes at 25° C. with shaking. Plates were washed four times with wash buffer and developed with the addition of Enhanced K-blue TMB substrate (Neogen, cat#308177). The reaction was stopped with 2N sulfuric acid (VWR, cat# BDH3500-1) and the absorbance was read at 450 nm-570 nm. […] Data was analyzed using Softmax Pro 4.8 software and IC₅₀ values calculated using a sigmoidal dose response (variable slope) fit in GraphPad Prism 5.

[2] = target: T2, recombinant human VEGF165 (human, UniProt P15692 207-395); test: competition ELISA: blocks biotinylated hVEGF165 binding to coated hVEGF-R2-Fc
T2 construct: also called hVEGF165; huVEGF-A165
Method: To identify molecules that could block the binding of hVEGF₁₆₅ to the hVEGF-R2 (KDR/Flk-1) receptor, a competition ELISA was performed. […] Plates were then washed four times with wash buffer (TBS, 0.05% Tween-20) and blocked with Superblock blocking buffer (Thermo Scientific, cat#37535). […] The pre-incubated sample/hVEGF₁₆₅ complex was added to the coated plate at 50 μL in duplicate and incubated for 30 minutes at 25° C. with shaking. Following incubation, plates were washed four times with wash buffer. Streptavidin-polyHRP-40 (Fitzgerald cal#65r-s104phrp) was diluted in assay diluent (10% Superblock containing 0.05% surfactamps) and added to plates (50 μL) for 45 minutes at 25° C. with shaking. Plates were washed four times with wash buffer and developed with the addition of Enhanced K-blue TMB substrate (Neogen cat#308177). The reaction was stopped with 2N sulfuric acid (VWR, cat# BDH3500-1) and the absorbance was read at 450 nm-570 nm. A decrease in observed optical density indicates the test molecule is blocking the hVEGF₁₆₅ binding to the hVEGF-R2-Fc. Data was analyzed using Softmax Pro 4.8 software and IC₅₀ values calculated using a sigmoidal dose response (variable slope) fit in GraphPad Prism 5.

[3] = target: T3, Recombinant human FcγRIIb, 6xHis-tagged (human, UniProt P31994 46-217, limits assumed); test: Biacore SPR; His-tagged human FcγR captured on anti-6xHis antibody, DVD-Ig injected
T3 construct: Captured through its 6xHis tag; also called huFcRIIb
T3 sequence: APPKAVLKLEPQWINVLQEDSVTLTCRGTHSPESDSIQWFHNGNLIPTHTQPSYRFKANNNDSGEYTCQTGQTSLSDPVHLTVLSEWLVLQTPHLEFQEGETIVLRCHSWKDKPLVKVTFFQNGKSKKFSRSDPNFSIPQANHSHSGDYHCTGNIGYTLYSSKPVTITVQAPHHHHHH
Method: (§1) A CM5 chip (GE Healthcare, Pittsburgh, Pa.) with mouse anti-6×His antibodies (“6×His” disclosed as SEQ ID NO: 405) that were directly immobilized on the chip via amine coupling according to the GE Healthcare protocol to the density of 10000RU (all flow cells) was used for experiments. Human FcγRs were captured on flow cells 2, 3 and 4. Flow cell 1 was used as a reference surface. HBS-EP+ was used as the running buffer. […] The chip surfaces were regenerated with an injection of 10 mM glycine pH 1.5 at a flow rate of 100 μL/minute over all four flow cells after each cycle.

[4] = target: T4, Recombinant human FcγRIIa H131, 6xHis-tagged (human, UniProt P12318 36-218, limits assumed); test: as above
T4 construct: Captured through its 6xHis tag
T4 sequence: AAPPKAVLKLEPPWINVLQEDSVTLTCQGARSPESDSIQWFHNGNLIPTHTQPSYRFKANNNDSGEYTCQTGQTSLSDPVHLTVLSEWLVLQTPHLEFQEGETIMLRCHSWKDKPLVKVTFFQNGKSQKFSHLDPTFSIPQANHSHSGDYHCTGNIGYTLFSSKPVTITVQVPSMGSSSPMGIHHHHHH
Method: as §1

[5] = target: T5, Recombinant human FcγRIIa R131, 6xHis-tagged (human, UniProt P12318 36-218, limits assumed); test: as above
T5 construct: Captured through its 6xHis tag
T5 sequence: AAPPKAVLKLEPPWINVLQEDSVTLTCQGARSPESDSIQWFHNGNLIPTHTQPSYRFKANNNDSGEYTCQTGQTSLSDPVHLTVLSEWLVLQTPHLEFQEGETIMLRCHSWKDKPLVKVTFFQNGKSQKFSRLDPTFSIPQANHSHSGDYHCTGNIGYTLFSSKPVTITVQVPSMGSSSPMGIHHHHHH
Method: as §1

[6] = target: T6, Recombinant human FcγRIIIa F158, 6xHis-tagged (human, UniProt P08637 17-208, limits assumed); test: as above
T6 construct: Captured through its 6xHis tag
Method: as §1

Recombinant rat FcRn = target: T7, Recombinant rat FcRn (rat, UniProt P13599 23-298, limits assumed); test: Biacore SPR; DVD-Ig immobilised by amine coupling, recombinant FcRn injected; 1:1 binding fit
T7 construct: FcRn is normally a heterodimer with beta-2-microglobulin
T7 sequence (looked up) 1: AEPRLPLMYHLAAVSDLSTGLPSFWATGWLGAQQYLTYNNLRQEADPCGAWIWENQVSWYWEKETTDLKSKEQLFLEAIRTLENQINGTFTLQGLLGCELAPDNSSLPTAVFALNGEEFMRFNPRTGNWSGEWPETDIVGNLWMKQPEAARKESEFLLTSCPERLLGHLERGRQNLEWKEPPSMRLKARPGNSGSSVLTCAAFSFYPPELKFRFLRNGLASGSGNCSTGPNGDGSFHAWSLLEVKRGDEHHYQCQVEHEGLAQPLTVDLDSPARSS
T7 sequence (looked up) 2: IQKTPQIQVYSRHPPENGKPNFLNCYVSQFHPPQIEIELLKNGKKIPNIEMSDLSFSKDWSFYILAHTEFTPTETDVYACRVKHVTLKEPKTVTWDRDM
Method: Human, cynomolgus, mouse, rat and rabbit recombinant FcRns were injected over all the flow cells at a flow rate of 50 μL/minute for 1 minute at a concentrations range of from 2.7 to 6000 nM (three fold serial dilution), followed by a 2 minute dissociation time. The surfaces were regenerated with an injection of 10 mM HCl at 100 μL/minute for 2 seconds followed by an injection of HBS-EP+, pH 7.4, at a flow rate of 50 μL/minute for 30 seconds over all four flow cells. Samples were prepared and run in two running buffer systems, pH 6.0 MES-EP+, and pH […]. Recombinant human FcγRIIIa V158 and rat and mouse FcRn data were fitted to 1:1 kinetic model. Recombinant human FcγRIIa R131 and FcγRIIa H131, FcγRIIIa F158, and recombinant human, cynomolgus and rabbit FcRn binding data were fitted to a steady state affinity model. Biacore T200 Evaluation Software version 2.0 was used to fit all the data.

[7] = target: T8, Recombinant human FcγRIIIa V158, 6xHis-tagged (human, UniProt P08637 17-208, limits assumed); test: Biacore SPR; His-tagged huFcγRIIIa 158V captured on anti-6xHis antibody, DVD-Ig injected; steady state fit
T8 construct: Captured through its 6xHis tag; also called huFcRIIIa 158V
Method: as §1
The binding of DVD-Ig molecules to FcRn from various species and the binding of DVD-Ig molecules to various FcγRs were characterized by Biacore using the method described in Example 1.2.

Human VEGF-A 165 = Human VEGF-A 165 (human, UniProt P15692 207-395); test: cell-based or functional assay
Human VEGF-A 165, sequence (P15692 other isoform, or with tags, fused parts or gaps): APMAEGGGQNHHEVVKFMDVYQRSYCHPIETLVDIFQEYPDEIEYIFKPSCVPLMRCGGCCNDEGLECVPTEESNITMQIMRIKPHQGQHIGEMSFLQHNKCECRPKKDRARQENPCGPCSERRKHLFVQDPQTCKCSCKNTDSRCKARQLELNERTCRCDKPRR

T8 sequence (P08637 other isoform, or with tags, fused parts or gaps limits assumed): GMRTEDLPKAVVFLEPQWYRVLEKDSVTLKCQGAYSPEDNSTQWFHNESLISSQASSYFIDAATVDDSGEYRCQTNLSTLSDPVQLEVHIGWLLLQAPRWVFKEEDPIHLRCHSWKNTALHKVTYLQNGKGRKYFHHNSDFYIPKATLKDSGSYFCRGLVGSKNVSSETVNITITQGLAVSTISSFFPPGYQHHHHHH
T6 sequence (P08637 other isoform, or with tags, fused parts or gaps limits assumed): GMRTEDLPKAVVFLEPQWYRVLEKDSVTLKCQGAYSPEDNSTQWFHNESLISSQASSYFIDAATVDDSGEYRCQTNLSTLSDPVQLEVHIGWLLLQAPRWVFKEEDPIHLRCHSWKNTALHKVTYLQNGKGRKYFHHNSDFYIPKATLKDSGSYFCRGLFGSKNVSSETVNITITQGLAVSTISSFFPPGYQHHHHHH
T1 sequence (P01127 82-190 limits assumed): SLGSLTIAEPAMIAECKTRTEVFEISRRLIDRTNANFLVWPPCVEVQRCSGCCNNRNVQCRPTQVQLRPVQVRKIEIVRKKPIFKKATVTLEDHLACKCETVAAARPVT
T2 sequence (P15692 other isoform, or with tags, fused parts or gaps limits assumed): as the sequence (P15692 other isoform, or with tags, fused parts or gaps) above

IC50 [1]: > 5 nM
IC50 [2]: 0.131 nM
B1: hVEGF 4G8.3-LS-hPDGF 9E8.4 [hu IgG1/k] mut(234, 235) H435A (bispecific antibody)
heavy: EVQLVQSGSELKKPGASVKVSCKASGYTFTNYGMYWVRQAPGQGLEWMGWINTETGKPTYADDFKGRFVFSLDTSVSTAYLQISSLKAEDTAVYYCARTNYYYRSYIFYFDYWGQGTMVTVSSASTKGPSVFPLAPEVTLRESGPALVKPTQTLTLTCTFSGFSLSTYGMGVGWIRQPPGKALEWLANIWWDDDKYYNPSLKNRLTISKDTSKNQVVLTMTNMDPVDTATYYCARIESIGTTYSFDYWGQGTMVTVSSASTKGPSVFPLAPSSKSTSGGTAALGCLVKDYFPEPVTVSWNSGALTSGVHTFPAVLQSSGLYSLSSVVTVPSSSLGTQTYICNVNHKPSNTKVDKKVEPKSCDKTHTCPPCPAPEAAGGPSVFLFPPKPKDTLMISRTPEVTCVVVDVSHEDPEVKFNWYVDGVEVHNAKTKPREEQYNSTYRVVSVLTVLHQDWLNGKEYKCKVSNKALPAPIEKTISKAKGQPREPQVYTLPPSREEMTKNQVSLTCLVKGFYPSDIAVEWESNGQPENNYKTTPPVLDSDGSFFLYSKLTVDKSRWQQGNVFSCSVMHEALHNAYTQKSLSLSPGK
light: DTVLTQSPATLSLSPGERATLSCRASESVSTHMHWYQQKPGQAPRLLIYGASNLESGVPARFSGSGSGTDFTLTISSLEPEDFAVYFCQQSWNDPFTFGQGTKLEIKRTVAAPEFVLTQSPGTLSLSPGERATLSCERSSGDIGDSYVSWYQQKPGQAPRLVIYADDQRPSGIPDRFSGSGSGTDFTLTISRLEPEDFAVYYCQSYDINIDIVFGGGTKVEIKGTVAAPSVFIFPPSDEQLKSGTASVVCLLNNFYPREAKVQWKVDNALQSGNSQESVTEQDSKDSTYSLSSTLTLSKADYEKHKVYACEVTHQGLSSPVTKSFNRGEC
notes: DVD-Ig, outer hBDB-4G8.3, inner hBDI-9E8.4, HG-long/LK-short; also called PR-1575573; 4G8.3-LS-9E8.4

binding result (Recombinant rat FcRn): no binding (tested: FcRn 2.7 to 6000 nM)
Kd [7]: 12000 nM
B2: 4G8.3-SL-9E8.4 (PR-1569579), anti-VEGF-A/anti-PDGF-BB DVD-Ig, hu IgG1/k mut(234,235) H435A (bispecific antibody)
heavy: EVQLVQSGSELKKPGASVKVSCKASGYTFTNYGMYWVRQAPGQGLEWMGWINTETGKPTYADDFKGRFVFSLDTSVSTAYLQISSLKAEDTAVYYCARTNYYYRSYIFYFDYWGQGTMVTVSSASTKGPEVTLRESGPALVKPTQTLTLTCTFSGFSLSTYGMGVGWIRQPPGKALEWLANIWWDDDKYYNPSLKNRLTISKDTSKNQVVLTMTNMDPVDTATYYCARIESIGTTYSFDYWGQGTMVTVSSASTKGPSVFPLAPSSKSTSGGTAALGCLVKDYFPEPVTVSWNSGALTSGVHTFPAVLQSSGLYSLSSVVTVPSSSLGTQTYICNVNHKPSNTKVDKKVEPKSCDKTHTCPPCPAPEAAGGPSVFLFPPKPKDTLMISRTPEVTCVVVDVSHEDPEVKFNWYVDGVEVHNAKTKPREEQYNSTYRVVSVLTVLHQDWLNGKEYKCKVSNKALPAPIEKTISKAKGQPREPQVYTLPPSREEMTKNQVSLTCLVKGFYPSDIAVEWESNGQPENNYKTTPPVLDSDGSFFLYSKLTVDKSRWQQGNVFSCSVMHEALHNAYTQKSLSLSPGK
light: DTVLTQSPATLSLSPGERATLSCRASESVSTHMHWYQQKPGQAPRLLIYGASNLESGVPARFSGSGSGTDFTLTISSLEPEDFAVYFCQQSWNDPFTFGQGTKLEIKRTVAAPSVFIFPPEFVLTQSPGTLSLSPGERATLSCERSSGDIGDSYVSWYQQKPGQAPRLVIYADDQRPSGIPDRFSGSGSGTDFTLTISRLEPEDFAVYYCQSYDINIDIVFGGGTKVEIKGTVAAPSVFIFPPSDEQLKSGTASVVCLLNNFYPREAKVQWKVDNALQSGNSQESVTEQDSKDSTYSLSSTLTLSKADYEKHKVYACEVTHQGLSSPVTKSFNRGEC
notes: also called hVEGF 4G8.3-SL-hPDGF 9E8.4 [hu IgG1/k] mut(234, 235) H435A
binding result [3]: no binding (tested: DVD-Ig 31.25 to 4000 nM)
binding result [4]: no binding (tested: DVD-Ig 31.25 to 4000 nM)
binding result [5]: no binding (tested: DVD-Ig 31.25 to 4000 nM)
binding result [6]: no binding (tested: DVD-Ig 31.25 to 4000 nM)

huVEGF-A165 Neutralization Potency in HMVEC-d cells (Human VEGF-A 165): 2.15 nM
B3: chBEW-9D2 (antibody, human IgG1, kappa, L234A L235A, V domains shown)
VH: QIQLVQSGPELKKPGESVKISCKASGYTFTNYGMYWVKLAPGQGLQYLGWINTETGKPTYADDFKGRFVFFLETSASTAYLQINNLRNEDMATYFCARPSDYYDGFWFAYWGQGTLVTVSS
VL: DTVLTQSPALTVSPGERVSISCRASEWVNSYMHWYQQNPGQQPKLLIYKASNLASGVPARFSGSGSGTDFTLTLDPVEADDTATYFCQQSWNDPLTFGSGTKLEIKR
